From the supplement of paper PMC11316812
± gives the standard deviation of the averaged measurements.

Legend:
hTERT-HMEC = assay: percentage of EdU-negative (G0-arrested) nuclei per well, 72 h; higher = more G0 arrest; settings: reference: sequence is the full UniProt precursor, the tested protein was the secreted form or ectodomain
MCF7 = assay: as above; settings: reference: sequence is the full UniProt precursor, the tested protein was the secreted form or ectodomain
[1] = protein concentration 0.0225 µM
[2] = protein concentration 0.03125 µM
[3] = protein concentration 0.3125 µM
[4] = protein concentration 0.0270475 µM
[5] = protein concentration 0.270475 µM
[6] = protein concentration 0.01175 µM
[7] = protein concentration 0.1175 µM
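Further: secreted proteins added to cultured cells, EdU pulse at the end, nuclei found by Hoechst imaging, EdU status from nuclear versus surrounding ring intensity ratio, PBS as neutral control.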

Substance	percentage of EdU-negative (hTERT-HMEC; [1])	percentage of EdU-negative (hTERT-HMEC; protein concentration 0.225 µM)	percentage of EdU-negative (MCF7; [1])	percentage of EdU-negative (MCF7; protein concentration 0.225 µM)	further results
MPMGSLQPLATLYLLGMLVASCLGRLSWYDPDFQARLTRSNSKCQGQLEVYLKDGWHMVCSQSWGRSSKQWEDPSQASKVCQRLNCGVPLSLGPFLVTYTPQSSIICYGQLGSFSNCSHSRNDMCHSLGLTCLEPQKTTPPTTRPPPTTTPEPTAPPRLQLVAQSGGQHCAGVVEFYSGSLGGTISYEAQDKTQDLENFLCNNLQCGSFLKHLPETEAGRAQDPGEPREHQPLPIQWKIQNSSCTSLEHCFRKIKPQKSGRVLALLCSGFQPKVQSRLVGGSSICEGTVEVRQGAQWAALCDSSSARSSLRWEEVCREQQCGSVNSYRVLDAGDPTSRGLFCPHQKLSQCHELWERNSYCKKVFVTCQDPNPAGLAAGTVASIILALVLLVVLLVVCGPLAYKKLVKKFRQKKQRQWIGPTGMNQNMSFHRNHTATVRSHAENPTASHVDNEYSQPPRNSHLSAYPALEGALHRSSMQPDNSSDSDYDLHGAQRL	5.29 ± 0.99%	5.13 ± 0.33%	24.9 ± 1.4%	26 ± 3.2%	–
MRPTLLWSLLLLLGVFAAAAAAPPDPLSQLPAPQHPKIRLYNAEQVLSWEPVALSNSTRPVVYQVQFKYTDSKWFTADIMSIGVNCTQITATECDFTAASPSAGFPMDFNVTLRLRAELGALHSAWVTMPWFQHYRNVTVGPPENIEVTPGEGSLIIRFSSPFDIADTSTAFFCYYVHYWEKGGIQQVKGPFRSNSISLDNLKPSRVYCLQVQAQLLWNKSNIFRVGHLSNISCYETMADASTELQQVILISVGTFSLLSVLAGACFFLVLKYRGLIKYWFHTPPSIPLQIEEYLKDPTQPILEALDKDSSPKDDVWDSVSIISFPEKEQEDVLQTL	–	–	–	–	percentage of EdU-negative (hTERT-HMEC; [2]): 5.59 ± 1.2%; percentage of EdU-negative (hTERT-HMEC; [3]): 6.09 ± 0.44%; percentage of EdU-negative (MCF7; [2]): 27.1 ± 3%; percentage of EdU-negative (MCF7; [3]): 24.6 ± 0.62%
MPWPLLLLLAVSGAQTTRPCFPGCQCEVETFGLFDSFSLTRVDCSGLGPHIMPVPIPLDTAHLDLSSNRLEMVNESVLAGPGYTTLAGLDLSHNLLTSISPTAFSRLRYLESLDLSHNGLTALPAESFTSSPLSDVNLSHNQLREVSVSAFTTHSQGRALHVDLSHNLIHRLVPHPTRAGLPAPTIQSLNLAWNRLHAVPNLRDLPLRYLSLDGNPLAVIGPGAFAGLGGLTHLSLASLQRLPELAPSGFRELPGLQVLDLSGNPKLNWAGAEVFSGLSSLQELDLSGTNLVPLPEALLLHLPALQSVSVGQDVRCRRLVREGTYPRRPGSSPKVALHCVDTRDSAARGPTIL [Q8WUA8]	–	–	–	–	percentage of EdU-negative (hTERT-HMEC; [2]): 5.33 ± 0.84%; percentage of EdU-negative (hTERT-HMEC; [3]): 5.25 ± 0.93%; percentage of EdU-negative (MCF7; [2]): 28 ± 1.4%; percentage of EdU-negative (MCF7; [3]): 29.1 ± 0.81%
MAQLWLSCFLLPALVVSVAANVAPKFLANMTSVILPEDLPVGAQAFWLVAEDQDNDPLTYGMSGPNAYFFAVTPKTGEVKLASALDYETLYTFKVTISVSDPYIQVQREMLVIVEDRNDNAPVFQNTAFSTSINETLPVGSVVFSVLAVDKDMGSAGMVVYSIEKVIPSTGDSEHLFRILANGSIVLNGSLSYNNKSAFYQLELKACDLGGMYHNTFTIQCSLPVFLSISVVDQPDLDPQFVREFYSASVAEDAAKGTSVLTVEAVDGDKGINDPVIYSISYSTRPGWFDIGADGVIRVNGSLDREQLLEADEEVQLQVTATETHLNIYGQEAKVSIWVTVRVMDVNDHKPEFYNCSLPACTFTPEEAQVNFTGYVDEHASPRIPIDDLTMVVYDPDKGSNGTFLLSLGGPDAEAFSVSPERAVGSASVQVLVRVSALVDYERQTAMAVQVVATDSVSQNFSVAMVTIHLRDINDHRPTFPQSLYVLTVPEHSATGSVVTDSIHATDPDTGAWGQITYSLLPGNGADLFQVDPVSGTVTVRNGELLDRESQAVYYLTLQATDGGNLSSSTTLQIHLLDINDNAPVVSGSYNIFVQEEEGNVSVTIQAHDNDEPGTNNSRLLFNLLPGPYSHNFSLDPDTGLLRNLGPLDREAIDPALEGRIVLTVLVSDCGEPVLGTKVNVTITVEDINDNLPIFNQSSYNFTVKEEDPGVLVGVVKAWDADQTEANNRISFSLSGSGANYFMIRGLVLGAGWAEGYLRLPPDVSLDYETQPVFNLTVSAENPDPQGGETIVDVCVNVKDVNDNPPTLDVASLRGIRVAENGSQHGQVAVVVASDVDTSAQLEIQLVNILCTKAGVDVGSLCWGWFSVAANGSVYINQSKAIDYEACDLVTLVVRACDLATDPGFQAYSNNGSLLITIEDVNDNAPYFLPENKTFVIIPELVLPNREVASVRARDDDSGNNGVILFSILRVDFISKDGATIPFQGVFSIFTSSEADVFAGSIQPVTSLDSTLQGTYQVTVQARDRPSLGPFLEATTTLNLFTVDQSYRSRLQFSTPKEEVGANRQAINAALTQATRTTVYIVDIQDIDSAARARPHSYLDAYFVFPNGSALTLDELSVMIRNDQDSLTQLLQLGLVVLGSQESQESDLSKQLISVIIGLGVALLLVLVIMTMAFVCVRKSYNRKLQAMKAAKEARKTAAGVMPSAPAIPGTNMYNTERANPMLNLPNKDLGLEYLSPSNDLDSVSVNSLDDNSVDVDKNSQEIKEHRPPHTPPEPDPEPLSVVLLGRQAGASGQLEGPSYTNAGLDTTDL [Q9BYE9]	4.86 ± 0.083%	7.42 ± 0.98%	26.56 ± 0.19%	26.4 ± 2.1%	–
MKFFLLLFTIGFCWAQYSPNTQQGRTSIVHLFEWRWVDIALECERYLAPKGFGGVQVSPPNENVAIHNPFRPWWERYQPVSYKLCTRSGNEDEFRNMVTRCNNVGVRIYVDAVINHMSGNAVSAGTSSTCGSYFNPGSRDFPAVPYSGWDFNDGKCKTGSGDIENYNDATQVRDCRLVGLLDLALEKDYVRSKIAEYMNHLIDIGVAGFRLDASKHMWPGDIKAILDKLHNLNSNWFPAGSKPFIYQEVIDLGGEPIKSSDYFGNGRVTEFKYGAKLGTVIRKWNGEKMSYLKNWGEGWGFMPSDRALVFVDNHDNQRGHGAGGASILTFWDARLYKMAVGFMLAHPYGFTRVMSSYRWPRQFQNGNDVNDWVGPPNNNGVIKEVTINPDTTCGNDWVCEHRWRQIRNMVNFRNVVDGQPFTNWYDNGSNQVAFGRGNRGFIVFNNDDWTFSLTLQTGLPAGTYCDVISGDKINGNCTGIKIYVSDDGKAHFSISNSAEDPFIAIHAESKL	6.12 ± 0.67%	7.06 ± 0.1%	25 ± 4.2%	31.3 ± 2.5%	–
MAQTSSYFMLISCLMFLSQSQGQEAQTELPQARISCPEGTNAYRSYCYYFNEDRETWVDADLYCQNMNSGNLVSVLTQAEGAFVASLIKESGTDDFNVWIGLHDPKKNRRWHWSSGSLVSYKSWGIGAPSSVNPGYCVSLTSSTGFQKWKDVPCEDKFSFVCKFKN	–	–	–	–	percentage of EdU-negative (hTERT-HMEC; [4]): 6.23 ± 0.99%; percentage of EdU-negative (hTERT-HMEC; [5]): 6.73 ± 0.84%; percentage of EdU-negative (MCF7; [4]): 25 ± 1.8%; percentage of EdU-negative (MCF7; [5]): 23.9 ± 0.49%
MQCWQQPFLRFLQQPFFLATASLAGSSSSFNVLIPKRDEDGDGEGPGDVTAGVSRAAGSPSGWEAPWVQQPRCCRRATPVCCAGQGPPRSLQQGGSEVLLGQLCSPEPDWLPSSGPKVAKQVFQVAAELLQHPEHFVPSSVPEGCVHKPGSTCDGSLKGRAYPSCVPKRDPEHSREESHPLSG [Q6UXR6]	4.87 ± 0.51%	4.95 ± 1%	26.15 ± 0.12%	26.1 ± 0.63%	–
MIFPWKCQSTQRDLWNIFKLWGWTMLCCDFLAHHGTDCWTYHYSEKPMNWQRARRFCRDNYTDLVAIQNKAEIEYLEKTLPFSRSYYWIGIRKIGGIWTWVGTNKSLTEEAENWGDGEPNNKKNKEDCVEIYIKRNKDAGKWNDDACHKLKAALCYTASCQPWSCSGHGECVEIINNYTCNCDVGYYGPQCQFVIQCEPLEAPELGTMDCTHPLGNFSFSSQCAFSCSEGTNLTGIEETTCGPFGNWSSPEPTCQVIQCEPLSAPDLGIMNCSHPLASFSFTSACTFICSEGTELIGKKKTICESSGIWSNPSPICQKLDKSFSMIKEGDYNPLFIPVAVMVTAFSGLAFIIWLARRLKKGKKSKRSMNDPY	4.92 ± 0.1%	11.1 ± 1.2%	24.2 ± 0.78%	32.8 ± 4%	–
Q9NP99	4.69 ± 0.52%	5.446 ± 0.054%	25.2 ± 3.3%	25.7 ± 1.1%	–
MLLEPGRGCCALAILLAIVDIQSGGCINITSSASQEGTRLNLICTVWHKKEEAEGFVVFLCKDRSGDCSPETSLKQLRLKRDPGIDGVGEISSQLMFTISQVTPLHSGTYQCCARSQKSGIRLQGHFFSILFTETGNYTVTGLKQRQHLEFSHNEGTLSSGFLQEKVWVMLVTSLVALQAL	4.71 ± 0.094%	5.62 ± 0.37%	24.09 ± 0.069%	28.4 ± 2.2%	–
MKGICSDAILVLATSMWMAFAIDFPLPMASERGQLDKTIVECLKNVNKCWFLSYIKPSEPICGSDQVTYSSDCHLCSKILFEGLNITKLYDGQCENS [P0C7L1]	5.76 ± 1.6%	7.03 ± 0.23%	23.2 ± 2.9%	26.1 ± 0.36%	–
MMGLFPRTTGALAIFVVVILVHGELRIETKGQYDEEEMTMQQAKRRQKREWVKFAKPCREGEDNSKRNPIAKITSDYQATQKITYRISGVGIDQPPFGIFVVDKNTGDINITAIVDREETPSFLITCRALNAQGLDVEKPLILTVKILDINDNPPVFSQQIFMGEIEENSASNSLVMILNATDADEPNHLNSKIAFKIVSQEPAGTPMFLLSRNTGEVRTLTNSLDREQASSYRLVVSGADKDGEGLSTQCECNIKVKDVNDNFPMFRDSQYSARIEENILSSELLRFQVTDLDEEYTDNWLAVYFFTSGNEGNWFEIQTDPRTNEGILKVVKALDYEQLQSVKLSIAVKNKAEFHQSVISRYRVQSTPVTIQVINVREGIAFRPASKTFTVQKGISSKKLVDYILGTYQAIDEDTNKAASNVKYVMGRNDGGYLMIDSKTAEIKFVKNMNRDSTFIVNKTITAEVLAIDEYTGKTSTGTVYVRVPDFNDNCPTAVLEKDAVCSSSPSVVVSARTLNNRYTGPYTFALEDQPVKLPAVWSITTLNATSALLRAQEQIPPGVYHISLVLTDSQNNRCEMPRSLTLEVCQCDNRGICGTSYPTTSPGTRYGRPHSGRLGPAAIGLLLLGLLLLLLAPLLLLTCDCGAGSTGGVTGGFIPVPDGSEGTIHQWGIEGAHPEDKEITNICVPPVTANGADFMESSEVCTNTYARGTAVEGTSGMEMTTKLGAATESGGAAGFATGTVSGAASGFGAATGVGICSSGQSGTMRTRHSTGGTNKDYADGAISMNFLDSYFSQKAFACAEEDDGQEANDCLLIYDNEGADATGSPVGSVGCCSFIADDLDDSFLDSLGPKFKKLAEISLGVDGEGKEVQPPSKDSGYGIESCGHPIEVQQTGFVKCQTLSGSQGASALSTSGSVQPAVSIPDPLQHGNYLVTETYSASGSLVQPSTAGFDPLLTQNVIVTERVICPISSVPGNLAGPTQLRGSHTMLCTEDPCSRLI	4.88 ± 0.17%	13.7 ± 2.7%	27.7 ± 0.58%	33.34 ± 0.16%	–
MEKILFYLFLIGIAVKAQICPKRCVCQILSPNLATLCAKKGLLFVPPNIDRRTVELRLADNFVTNIKRKDFANMTSLVDLTLSRNTISFITPHAFADLRNLRALHLNSNRLTKITNDMFSGLSNLHHLILNNNQLTLISSTAFDDVFALEELDLSYNNLETIPWDAVEKMVSLHTLSLDHNMIDNIPKGTFSHLHKMTRLDVTSNKLQKLPPDPLFQRAQVLATSGIISPSTFALSFGGNPLHCNCELLWLRRLSREDDLETCASPPLLTGRYFWSIPEEEFLCEPPLITRHTHEMRVLEGQRATLRCKARGDPEPAIHWISPEGKLISNATRSLVYDNGTLDILITTVKDTGAFTCIASNPAGEATQIVDLHIIKLPHLLNSTNHIHEPDPGSSDISTSTKSGSNTSSSNGDTKLSQDKIVVAEATSSTALLKFNFQRNIPGIRMFQIQYNGTYDDTLVYRMIPPTSKTFLVNNLAAGTMYDLCVLAIYDDGITSLTATRVVGCIQFTTEQDYVRCHFMQSQFLGGTMIIIIGGIIVASVLVFIIILMIRYKVCNNNGQHKVTKVSNVYSQTNGAQIQGCSVTLPQSVSKQAVGHEENAQCCKATSDNVIQSSETCSSQDSSTTTSALPPSWTSSTSVSQKQKRKTGTKPSTEPQNEAVTNVESQNTNRNNSTALQLASRPPDSVTEGPTSKRAHIKPNALLTNVDQIVQETQRLELI [G3V364]	–	–	–	–	percentage of EdU-negative (hTERT-HMEC; [6]): 4.44 ± 0.44%; percentage of EdU-negative (hTERT-HMEC; [7]): 6.29 ± 1.1%; percentage of EdU-negative (MCF7; [6]): 25.9 ± 2.7%; percentage of EdU-negative (MCF7; [7]): 27.1 ± 1.2%
